Experimental data as given in paper PMC5025603.

Substrate: CC(O)C(=O)O
Experiment: cells, lysate or membranes
Settings: labelled compound, KH2PO4 pH 5.0, room temperature, 10 s uptake, strain printed GLS in table, GS in text and methods, host background uptake not subtracted

B1: PAS (putative lactate transporter of P. pastoris) (Komagataella phaffii GS115) (protein)
chain: MSHSIHSAAHKSVMTDIEKQHDRIHPHDHPVTPLEKPDLSAKSIKHYFATRLSTLVPKAEDFKDKRYIFNPFMVLRELTPKNWNFFMCGFAAWTWDAVDFFSVSLNVTNIAKDLNVTTKDVTWGLTLVLMLRSVGAISFGLWADRKGRKWPFIFNMILLIVLQIGLGFVNTYKQFLGVRAVFGIAMGAVFGNASSLALDDCPPRAKGIVSGIFQQGYAFGYLLVVVFQRAITDNASKSWRALFWFSAGPPVLIILWRLVLPETDAFIAQQNLRMETSDGQTASQQFVKQGKDALRVYWLMLIYMIIMMAAFNFSSHSSQDLYPTLLTVQYEFGKDRSTVTNVVANLGAIVGGIFWGHMSNFIGRRLAVLLCCIVGGAFIYPWAFINGSGINAGAFFLQFAVQGGWGVCPVHLAEMSPPHFRAFVTGTTYQLGNLASSGSSTILADIGERFPIYDENGVRKEGVYDYAKVMAIFMGAVFAFLFIVMLLGPERRGASNLDDLQDYIDDWEQKDLDNKKGIETEFIEDVQLMEAVSNEDLSEKGNEKVEAFEGNK
In the case of B1, the Km is reported as 157.40 ± 25.46 µM and the Vmax is reported as 452 µmol/min/mg.
